Data taken from patent US20150044213A1 (published 2015).
Values joined by “and” are separate entries in the source; they are usually repeats but may differ in a detail not shown here. Equal values may be shown once.

Columns and labels:
[1] = biological target: T1, Recombinant human VEGF165 (human, UniProt P15692-4 27-191); experiment: SPR (BIAcore T100), VEGF165 on CM4 chip, 1:1 Langmuir model; scFv released from hexPLA formulation, release sample at 3 d
T1 construct: Immobilized on a CM4 sensor chip by amine coupling (about 500 RU)
Protocol: (§1) The affinity of the released ESBA903 monomer toward human VEGF was measured using surface plasmon resonance analysis in comparison to a fresh ESBA903 reference. For evaluation of the binding kinetics, surface plasmon resonance measurements using a BIAcore T100 were performed. Carboxymethylated dextran biosensor chips (CM4, GE HealthCare, Uppsala, Sweden) were activated with N-ethyl-N′-(3-dimethylaminopropyl) carbodiimide hydrochloride and N-hydroxysuccinimide according to the supplier's instructions. Recombinant human VEGF₁₆₅ (PeproTech EC Ltd., London, UK) was immobilized on a CM4 sensor chip using a standard amine-coupling procedure to achieve a response of approximately 500 resonance units. 2-fold serial dilutions (2.5-20 nM) of ESBA903 standard and formulation samples in HBS-EP buffer (10 mM HEPES, 150 mM NaCl, 3 mM EDTA, and 0.05% surfactant P20, pH 7.4) were injected into the flow cells at a flow rate of 30 μL/min for 5 minutes. Dissociation of the anti-VEGF scFv from the VEGF on the CM4 chip was allowed to proceed for 10 minutes. After each injection cycle, surfaces were regenerated with 2 injections of 100 mM NaOH.
(§2) The apparent dissociation (kd) and association (kₐ) rate constants and the apparent dissociation equilibrium constant (KD) were calculated with BIAcore T100 evaluation Software version 2.0.1 using a one-to-one Langmuir binding model (Biacore Inc., Uppsala, Sweden).

[2] = biological target: T1, Recombinant human VEGF165; experiment: SPR (BIAcore T100), VEGF165 on CM4 chip, 1:1 Langmuir model; scFv released from hexPLA formulation, release sample at 14 w
Protocol: as §1, §2

[3] = biological target: T1, Recombinant human VEGF165; experiment: SPR (BIAcore T100), VEGF165 on CM4 chip, 1:1 Langmuir model; scFv released from hexPLA formulation, release sample at 4 w
Protocol: as §1, §2

[4] = biological target: T1, Recombinant human VEGF165; experiment: SPR (BIAcore T100), VEGF165 amine-coupled on CM4 chip, scFv 2.5-20 nM injected, 1:1 Langmuir model; fresh reference, time 0
Protocol: as §1, §2

T1 sequence (P15692 other isoform, or with tags, fused parts or gaps limits assumed): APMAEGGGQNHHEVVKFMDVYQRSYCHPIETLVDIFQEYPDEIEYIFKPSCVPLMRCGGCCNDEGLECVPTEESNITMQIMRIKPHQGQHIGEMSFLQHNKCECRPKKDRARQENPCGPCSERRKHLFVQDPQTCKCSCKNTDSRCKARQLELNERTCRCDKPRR

- Kd [1]: 0.0594 nM and 0.0685 nM and 0.0489 nM
- koff [1]: 2.77e-05 s⁻¹ and 3e-05 s⁻¹ and 2.59e-05 s⁻¹
- kon [1]: 465000 M⁻¹ s⁻¹ and 439000 M⁻¹ s⁻¹ and 529000 M⁻¹ s⁻¹
- Kd [2]: 0.0762 nM and 0.066 nM and 0.0826 nM
- koff [2]: 3.11e-05 s⁻¹ and 2.78e-05 s⁻¹ and 3.37e-05 s⁻¹
- kon [2]: 407000 M⁻¹ s⁻¹ and 421000 M⁻¹ s⁻¹ and 408000 M⁻¹ s⁻¹
- Kd [3]: 0.0643 nM and 0.0521 nM and 0.0552 nM
- koff [3]: 3.56e-05 s⁻¹ and 3.03e-05 s⁻¹ and 2.34e-05 s⁻¹
- kon [3]: 554000 M⁻¹ s⁻¹ and 582000 M⁻¹ s⁻¹ and 424000 M⁻¹ s⁻¹
- Kd [4]: 0.0256 nM
- koff [4]: 2.45e-05 s⁻¹
- kon [4]: 956000 M⁻¹ s⁻¹
B1: ESBA903 (scFv)
scFv: EIVMTQSPSTLSASVGDRVIITCQASEIIHSWLAWYQQKPGKAPKLLIYLASTLASGVPSRFSGSGSGAEFTLTISSLQPDDFATYYCQNVYLASTNGANFGQGTKLTVLGGGGGSGGGGSGGGGSGGGGSEVQLVESGGGLVQPGGSLRLSCTASGFSLTDYYYMTWVRQAPGKGLEWVGFIDPDDDPYYATWAKGRFTISRDTSKNTVYLQMNSLRAEDTAVYYCAGGDHNSGWGLDIWGQGTLVTVSS
notes: Monomeric scFv (about 25 kDa); same protein in all samples; also called humanized antibody-fragment ESBA903; humanized VEGF-antibody fragment ESBA903
